Test system: Hela cells
Test: Flow cytometry binding to Hela cells
Assay type: cell-based
Conditions: transfection supernatant, FIG. 6
Method: The binding activity of the antibodies to Hela cells (ATCC® CCL-2, provided by COBIOER) and to RPTEC/TERT1 cells (ATCC® CRL-4031, provided by COBIOER) was tested by flow cytometry using the transfection supernatants. Briefly, target cells were digested with 0.02% EDTA-2Na, centrifuged at 1500 rpm for 3 mins, and resuspended with PBS. After counting, the cells were added to a 1.5 ml centrifuge tube with 1×10^6 cells per tube, centrifuged at 1500 rpm for 5 minutes, and the supernatant was discarded. Then all the operations were carried out on an ice bath. 100 μL of transfection supernatant was added to each 1.5 ml centrifuge tube. Blank cells, blank cells plus secondary antibody, medium and HEK293 supernatant were set up as the controls. The reaction was performed on an ice bath for 1 hour. Then the cells were pelleted and washed twice with PBS. The secondary antibody, goat anti-Human IgG (PE, abcam, ab98596), was diluted (1:200) and added using 100 μL per tube. The reaction was performed on an ice bath for 1 hour in the dark. The cells were pelleted again and washed twice with PBS, resuspended in 300 μL PBS, and FL2 fluorescence readings were measured by cytometry. The results were analyzed by FlowJoTM10 software.
Anti-FOLR1 antibody binding to Hela and RPTEC/TERT1 cells was tested by FACS. The study was carried out as described above. […]

B1: F40: anti-FOLR1 antibody clone; "Clone F40 has a different HCDRs and LCDRs, and with different HFR and LFR" (antibody, V domains shown)
VH: EVQLLESGGGVVQPGRSLRLSCAASGFTFSSYAMHWVRQAPGKGLEWVAVISYDGSNKYYADSVKGRFIISRDNSKNTVYLQMNSLRAEDTAVYYCARPTYVFTYTGSSFDYWGQGTQVTVSS
VL: DIQVTQSPSSLSASLGDTVSITCRASRGLTDSVAWYQQKPGQAPKLLIYAASTLQSGVPSRFGGSGSGSYFTLTITSLQPEDVATYYCQNYKSAPWTFGQGTKVEIK
Question: For B1, which Hela cell binding is on record?
Answer: weakly positive
